Results reported in patent publication US20110091994A1, “Methods for Screening Compounds for Treating and/or Preventing an Hepatitis C Virus Infection” (priority 2008, published 2011).
Where two headings read alike, the source gives them in different places.

Experiments:
[1] = test system: HCV ORFs (Gal4-DB fusions); format: binding, HCV genotype 1b, isolate con1; conditions: human protein listed by gene symbol; the value names the HCV protein it interacts with
Description: (§1) HCV ORFs were transferred from pDONR223 into bait vector (pPC97) to be expressed as Gal4-DB fusions in yeast. Two different screening methods were used (IMAP1 and IMAP2). Both for IMAP1 and IMAP2 strategies and because bait constructs sometimes self-transactivate reporter genes, SD-L-H culture medium were supplemented with 3-aminotriazole (3-AT). Appropriate concentrations of this drug were determined by growing bait strains on SD-L-H medium supplemented with increasing concentrations of 3-AT. […] For IMAP1, bait vectors were introduced in MAV203 yeast strain and both human spleen and foetal brain AD-cDNA libraries (Invitrogen) were screened by transformation as described (7). All primary positive clones (selected on SD-W-L-H+3-AT) were tested by further phenotypic assay using two additional reporter genes: LacZ (X-Gal colorimetric assay) and URA3 (growth assay on 5-FOA supplemented medium). […] AD-cDNA were PCR-amplified and inserts were sequenced to identify interactors. IMAP2 screens were performed by yeast mating, using AH109 and Y187 yeast strains (Clontech (8)). Bait vectors were transformed into AH109 (bait strain) and human spleen and foetal brain AD-cDNA libraries (Invitrogen) were transformed into Y187 (prey strain). Single bait strains were mated with prey strains then diploids were plated on SD-W-L-H+3-AT medium. Positive clones were maintained onto this selective medium for 15 days to eliminate any contaminant AD-cDNA plasmid (9). AD-cDNAs were PCR amplified and inserts were sequenced.
(§2) We have developed a bioinformatic pipeline that assigns each IST to its native human genome transcript. […] Gal4 motif was searched (last 87 bases of GAL4-AD), sequences downstream of this motif were translated into peptides and aligned using BLASTP against the REFSEQ (http://www.ncbi.nlm.nih.gov/RefSeq/) human protein sequence database (release 04/2007). Low-confidence alignments (E value>10^−10, identity <80%) and premature STOP codon containing sequences were eliminated. Only in-frame proteins and high quality sequences were further considered

[2] = biological target: T1, HCV ORFs (Gal4-DB fusions) (Hepatitis C virus genotype 1b, UniProt Q9WMX2); format: binding, HCV genotype 1b, isolate con1; conditions: human protein as prey
T1 construct: expressed in transfected cells; host or cells: Saccharomyces cerevisiae MAV203 (IMAP1) / AH109 (IMAP2)
Description: as §1, §2
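Also: yeast two-hybrid screens using HCV genotype 1b proteins fused to Gal4-DB as baits against prey cDNA libraries from human spleen and foetal brain, IMAP1 via transformation and IMAP2 via mating.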

Row | Molecule | Interaction with viral protein [1] | IMAP Y2H IMAP2 (number of IST) ([2]; HCV protein NS5A as bait) | IMAP Y2H IMAP2 (number of IST) ([2]; HCV protein NS3 as bait) | IMAP Y2H IMAP2 (number of IST) ([2]; HCV protein NS5B as bait)
1 | SORBS3 (protein, UniProt O60504 1-671, looked up) Vinexin: MQGPPRSLRAGLSLDDFIPGHLQSHIGSSSRGTRVPVIRNGGSNTLNFQFHDPAPRTVCNGGYTPRRDASQHPDPAWYQTWPGPGSKPSASTKIPASQHTQNWSATWTKDSKRRDKRWVKYEGIGPVDESGMPIAPRSSVDRPRDWYRRMFQQIHRKMPDLQLDWTFEEPPRDPRHLGAQQRPAHRPGPATSSSGRSWDHSEELPRSTFNYRPGAFSTVLQPSNQVLRRREKVDNVWTEESWNQFLQELETGQRPKKPLVDDPGEKPSQPIEVLLERELAELSAELDKDLRAIETRLPSPKSSPAPRRAPEQRPPAGPASAWSSSYPHAPYLGSARSLSPHKMADGGSPFLGRRDFVYPSSTRDPSASNGGGSPARREEKKRKAARLKFDFQAQSPKELTLQKGDIVYIHKEVDKNWLEGEHHGRLGIFPANYVEVLPADEIPKPIKPPTYQVLEYGEAVAQYTFKGDLEVELSFRKGEHICLIRKVNENWYEGRITGTGRQGIFPASYVQVSREPRLRLCDDGPQLPTSPRLTAAARSARHPSSPSALRSPADPIDLGGQTSPRRTGFSFPTQEPRPQTQNLGTPGPALSHSRGPSHPLDLGTSSPNTSQIHWTPYRAMYQYRPQNEDELELREGDRVDVMQQCDDGWFVGVSRRTQKFGTFPGNYVAPV | NS5A | 1 |  | 
2 | PARVG (protein, UniProt Q9HBI0 1-331, looked up) Gamma-parvin: MEPEFLYDLLQLPKGVEPPAEEELSKGGKKKYLPPTSRKDPKFEELQKVLMEWINATLLPEHIVVRSLEEDMFDGLILHHLFQRLAALKLEAEDIALTATSQKHKLTVVLEAVNRSLQLEEWQAKWSVESIFNKDLLSTLHLLVALAKRFQPDLSLPTNVQVEVITIESTKSGLKSEKLVEQLTEYSTDKDEPPKDVFDELFKLAPEKVNAVKEAIVNFVNQKLDRLGLSVQNLDTQFADGVILLLLIGQLEGFFLHLKEFYLTPNSPAEMLHNVTLALELLKDEGLLSCPVSPEDIVNKDAKSTLRVLYGLFCKHTQKAHRDRTPHGAPN | NS5A | 1 |  | 
3 | RRBP1 (protein, UniProt Q9P2E9 1-1410, looked up) Ribosome-binding protein 1: MDIYDTQTLGVVVFGGFMVVSAIGIFLVSTFSMKETSYEEALANQRKEMAKTHHQKVEKKKKEKTVEKKGKTKKKEEKPNGKIPDHDPAPNVTVLLREPVRAPAVAVAPTPVQPPIIVAPVATVPAMPQEKLASSPKDKKKKEKKVAKVEPAVSSVVNSIQVLTSKAAILETAPKEVPMVVVPPVGAKGNTPATGTTQGKKAEGTQNQSKKAEGAPNQGRKAEGTPNQGKKTEGTPNQGKKAEGTPNQGKKAEGTPNQGKKAEGAQNQGKKVDTTPNQGKKVEGAPTQGRKAEGAQNQAKKVEGAQNQGKKAEGAQNQGKKGEGAQNQGKKAEGAQNQGKKAEGAQNQGKKAEGAQNQGKKAEGAQNQGKKAEGAQNQGKKAEGAQNQGKKVEGAQNQGKKAEGAQNQGKKAEGAQNQGKKAEGAQNQGKKAEGAQNQGKKAEGAQNQGKKAEGAQNQGKKAEGAQNQGKKVEGAQNQGKKAEGAQNQGKKAEGAQNQGKKAEGAQNQGQKGEGAQNQGKKTEGAQGKKAERSPNQGKKGEGAPIQGKKADSVANQGTKVEGITNQGKKAEGSPSEGKKAEGSPNQGKKADAAANQGKKTESASVQGRNTDVAQSPEAPKQEAPAKKKSGSKKKGEPGPPDADGPLYLPYKTLVSTVGSMVFNEGEAQRLIEILSEKAGIIQDTWHKATQKGDPVAILKRQLEEKEKLLATEQEDAAVAKSKLRELNKEMAAEKAKAAAGEAKVKKQLVAREQEITAVQARMQASYREHVKEVQQLQGKIRTLQEQLENGPNTQLARLQQENSILRDALNQATSQVESKQNAELAKLRQELSKVSKELVEKSEAVRQDEQQRKALEAKAAAFEKQVLQLQASHRESEEALQKRLDEVSRELCHTQSSHASLRADAEKAQEQQQQMAELHSKLQSSEAEVRSKCEELSGLHGQLQEARAENSQLTERIRSIEALLEAGQARDAQDVQASQAEADQQQTRLKELESQVSGLEKEAIELREAVEQQKVKNNDLREKNWKAMEALATAEQACKEKLLSLTQAKEESEKQLCLIEAQTMEALLALLPELSVLAQQNYTEWLQDLKEKGPTLLKHPPAPAEPSSDLASKLREAEETQSTLQAECDQYRSILAETEGMLRDLQKSVEEEEQVWRAKVGAAEEELQKSRVTVKHLEEIVEKLKGELESSDQVREHTSHLEAELEKHMAAASAECQNYAKEVAGLRQLLLESQSQLDAAKSEAQKQSDELALVRQQLSEMKSHVEDGDIAGAPASSPEAPPAEQDPVQLKTQLEWTEAILEDEQTQRQKLTAEFEEAQTSACRLQEELEKLRTAGPLESSETEEASQLKERLEKEKKLTSDLGRAATRLQELLKTTQEQLAREKDTVKKLQEQLEKAEDGSSSKEGTSV | NS5A | 2 |  | 
4 | TP53BP2 (protein, UniProt Q13625 1-1128, looked up) Apoptosis-stimulating of p53 …: MMPMFLTVYLSNNEQHFTEVPVTPETICRDVVDLCKEPGESDCHLAEVWCGSERPVADNERMFDVLQRFGSQRNEVRFFLRHERPPGRDIVSGPRSQDPSLKRNGVKVPGEYRRKENGVNSPRMDLTLAELQEMASRQQQQIEAQQQLLATKEQRLKFLKQQDQRQQQQVAEQEKLKRLKEIAENQEAKLKKVRALKGHVEQKRLSNGKLVEEIEQMNNLFQQKQRELVLAVSKVEELTRQLEMLKNGRIDSHHDNQSAVAELDRLYKELQLRNKLNQEQNAKLQQQRECLNKRNSEVAVMDKRVNELRDRLWKKKAALQQKENLPVSSDGNLPQQAASAPSRVAAVGPYIQSSTMPRMPSRPELLVKPALPDGSLVIQASEGPMKIQTLPNMRSGAASQTKGSKIHPVGPDWSPSNADLFPSQGSASVPQSTGNALDQVDDGEVPLREKEKKVRPFSMFDAVDQSNAPPSFGTLRKNQSSEDILRDAQVANKNVAKVPPPVPTKPKQINLPYFGQTNQPPSDIKPDGSSQQLSTVVPSMGTKPKPAGQQPRVLLSPSIPSVGQDQTLSPGSKQESPPAAAVRPFTPQPSKDTLLPPFRKPQTVAASSIYSMYTQQQAPGKNFQQAVQSALTKTHTRGPHFSSVYGKPVIAAAQNQQQHPENIYSNSQGKPGSPEPETEPVSSVQENHENERIPRPLSPTKLLPFLSNPYRNQSDADLEALRKKLSNAPRPLKKRSSITEPEGPNGPNIQKLLYQRTTIAAMETISVPSYPSKSASVTASSESPVEIQNPYLHVEPEKEVVSLVPESLSPEDVGNASTENSDMPAPSPGLDYEPEGVPDNSPNLQNNPEEPNPEAPHVLDVYLEEYPPYPPPPYPSGEPEGPGEDSVSMRPPEITGQVSLPPGKRTNLRKTGSERIAHGMRVKFNPLALLLDSSLEGEFDLVQRIIYEVDDPSLPNDEGITALHNAVCAGHTEIVKFLVQFGVNVNAADSDGWTPLHCAASCNNVQVCKFLVESGAAVFAMTYSDMQTAADKCEEMEEGYTQCSQFLYGVQEKMGIMNKGVIYALWDYEPQNDDELPMKEGDCMTIIHREDEDEIEWWWARLNDKEGYVPRNLLGLYPRIKPRQRSLA | NS5A | 2 |  | 
5 | PMVK (protein, UniProt Q15126 1-192, looked up) Phosphomevalonate kinase: MAPLGGAPRLVLLFSGKRKSGKDFVTEALQSRLGADVCAVLRLSGPLKEQYAQEHGLNFQRLLDTSTYKEAFRKDMIRWGEEKRQADPGFFCRKIVEGISQPIWLVSDTRRVSDIQWFREAYGAVTQTVRVVALEQSRQQRGWVFTPGVDDAESECGLDNFGDFDWVIENHGVEQRLEEQLENLIEFIRSRL | NS5A | 1 |  | 
6 | C16orf7 (protein, UniProt Q9Y2B5 1-631, looked up) VPS9 domain-containing …: MAAAAGDGTVKPLQSAMKLANGAIELDTGNRPREAYTEYLRSIHYISQVLLEEVETTKEAGETVPPDTSKMLKLAQQCLERAQSTAAKLGKTRLKPTMPAAAPIPQPAGRHRRVYSDEGGKLSPFLPPEIFQKLQGAESQSCKKELTPLEEASLQNQKLKAAYEARMARLDPSQAMQKTSLTLSLQRQMMENLVIAKAREETLQRKMEERRLRLQEAANRRFCSQVALTPEEREQRALYAAILEYEQDHDWPKHWKAKLKRNPGDLSLVTSLVSHLLSLPDHPIAQLLRRLQCSVYSALYPAVSRAAAPAPGCCPPTPNPGSRRLRPSQSLHCMLSPPEPSAAPRPQDSPPTPPLQPGPVGSPSPLGDTASGLPDKDSSFEDLEQFLGTSERQGRGRGVQPEPQLQQLKTAVEEIHNAVDRLLSLTLLAFEGLNTAASKDRCLACIEEPFFSPLWPLLLALYRSVHRAREAALSRSMELYRNAPPTAIGIPTKLLPQNPEAKGATGYPYCAAAQELGLLVLESCPQKKLECIVRTLRIICVCAEDYCPTPEATPQAGPPPIAAAAIGADDLLPILSFVVLRSGLPQLVSECAALEEFIHEGYLIGEEGYCLTSLQSALSYVELLPRGGLAK | NS3 |  | 1 | 
7 | OS9 (protein, UniProt Q13438 26-667, looked up) Protein OS-9: GGVGSLNLEELSEMRYGIEILPLPVMGGQSQSSDVVIVSSKYKQRYECRLPAGAIHFQREREEETPAYQGPGIPELLSPMRDAPCLLKTKDWWTYEFCYGRHIQQYHMEDSEIKGEVLYLGYYQSAFDWDDETAKASKQHRLKRYHSQTYGNGSKCDLNGRPREAEVRFLCDEGAGISGDYIDRVDEPLSCSYVLTIRTPRLCPHPLLRPPPSAAPQAILCHPSLQPEEYMAYVQRQADSKQYGDKIIEELQDLGPQVWSETKSGVAPQKMAGASPTKDDSKDSDFWKMLNEPEDQAPGGEEVPAEEQDPSPEAADSASGAPNDFQNNVQVKVIRSPADLIRFIEELKGGTKKGKPNIGQEQPVDDAAEVPQREPEKERGDPERQREMEEEEDEDEDEDEDEDERQLLGEFEKELEGILLPSDRDRLRSEVKAGMERELENIIQETEKELDPDGLKKESERDRAMLALTSTLNKLIKRLEEKQSPELVKKHKKKRVVPKKPPPSPQPTEEDPEHRVRVRVTKLRLGGPNQDLTVLEMKRENPQLKQIEGLVKELLEREGLTAAGKIEIKIVRPWAEGTEEGARWLTDEDTRNLKEIFFNILVPGAEEAQKERQRQKELESNYRRVWGSPGGEGTGDLDEFDF | NS5A |  |  | 3
8 | BCL2A1 (protein, UniProt Q16548 1-175, looked up) Bcl-2-related protein A1: MTDCEFGYIYRLAQDYLQCVLQIPQPGSGPSKTSRVLQNVAFSVQKEVEKNLKSCLDNVNVVSVDTARTLFNQVMEKEFEDGIINWGRIVTIFAFEGILIKKLLRQQIAPDVDTYKEISYFVAEFIMNNTGEWIRQNGGWENGFVKKFEPKSGWMTFLEVTGKICEMLSLLKQYC | NS3 |  | 1 | 
